Reference: PMC4072051
Several values for one entry are separate records, joined by “and”; a condition that tells them apart may be missing. Identical values can stand only once.

Molecular target: Recombinant TssK (SMA2253), purified from S. marcescens, His6 tag removed (Serratia marcescens Db10)
Experiment: AUC; sedimentation velocity, 4°C, 49000 rev./min, 50 mM Tris/HCl pH 7.5, 250 mM NaCl; Peak 1 at 0.2 to 0.7 mg/ml, Peak 2 at 0.2 and 0.5 mg/ml; c(s) analysis in SEDFIT

Recombinant TssK (SMA2253), purified from S. marcescens, His6 tag removed (natural protein)
stoichiometry N: 3 and 6
